Our source for the induction of apoptosis and Ki values is PMC2784912 (Biochemistry, 2008).

The test system of experiment [1] is MDA-MB-231 cancer cell line. Put plainly: Apoptosis by annexin V/propodium iodide flow cytometry. Type of experiment: cell-based, human. The note with it: MDA-MB-231, 24 h, annexin V/PI.
In experiment [2] the target is XIAP BIR2-only protein (residues 120–240) (human) (UniProt P98170). Put plainly: fluorescence polarisation.
Experiment [3] has as its target XIAP linker–BIR2–BIR3 protein (residues 120–356) (human) (UniProt P98170). Description: fluorescence polarisation.
Experiment [4] has as its target XIAP BIR3-only protein (residues 241–356) (human) (UniProt P98170). Description: fluorescence polarisation.

With `COC(=O)CC[C@H](NC(=O)[C@H](CC(=O)OC)NC(=O)OCc1ccccc1)C(=O)N[C@H](C(=O)N[C@@H](CC(=O)OC)C(=O)CF)C(C)C` [Z-DEVD-FMK], the induction of apoptosis entry in experiment [1] is “no effect on cells”.

Turning to “compound 2 (monovalent Smac mimetic, N-methyl-AKPF) (peptide)”, the Ki in experiment [2] came out at 11700 nM; in experiment [3], 900 nM; in experiment [4], 86 nM.
